# B1: SUN domain-containing protein 2 (Mus musculus), Q8BJS4-3 (parent)
# chain: MSRRSQRLTRYSQDDNDGGSSSSGASSVAGSQGTVFKDSPLRTLKRKSSNMKHLSPAPQLGPSSDSHTSYYSESVVRESYIGSPRAVSLARSALLDDHLHSEPYWSGDLRGRRRRGTGGSESSKANGLTAESKASEDFFGSSSGYSSEDDLAGRLFGLLYWWIGTTWYRLTTAASLLDVFVLTRSRHFSLNLKSFLWFLLLLLLLTGLTYGAWHFYPLGLQTLQPAVVSWWAAKESRKQPEVWESRDASQHFQAEQRVLSRVHSLERRLEALAADFSSNWQKEAIRLERLELRQGAAGHGGGSSLSHEDALSLLEGLVSRREATLKEDLRRDTVAHIQEELATLRAEHHQDSEDLFKKIVQASQESEARVQQLKTEWKSMTQEAFQESSVKELGRLEAQLASLRQELAALTLKQNSVADEVGLLPQKIQAARADVESQFPDWIRQFLLGDRGARSGLLQRDEMHAQLQELENKILTKMAEMQGKSAREAAASLGQILQKEGIVGVTEEQVHRIVKQALQRYSEDRIGMVDYALESGGASVISTRCSETYETKTALLSLFGIPLWYHSQSPRVILQPDVHPGNCWAFQGPQGFAVVRLSARIRPTAVTLEHVPKALSPNSTISSAPKDFAIFGFDEDLQQEGTLLGTFAYDQDGEPIQTFYFQASKMATYQVVELRILTNWGHPEYTCIYRFRVHGEPAH
# Variants of: B1
# Conditions: with Syne2, Q6ZWQ0-1
row,effect of a mutation on the interaction,Variant
1,disrupting interaction strength,L400A;L403A
